Assay [1] has as its target pyrene-labelled rabbit skeletal F-actin (rabbit) (UniProt P68135). As to the kind of experiment: other fluorescence titration.
Assay [2] addresses RLC-depleted porcine cardiac myosin (porcine) (UniProt P79293). As to the kind of experiment: co-sedimentation.

Where a chain is given by its changes, count along the chain named. Names may count otherwise.

Regarding “A13T-RLC-reconstituted porcine cardiac myosin (from UniProt P79293 1-1935; P10916 1-166) (complex)”, in assay [1], the Kd (commonly the constant that tells how readily two partners part at equilibrium) came to 24.4 nM and the stoichiometry N (usually the number of molecules, sites or subunits per partner or assembly) turned out to be 0.9.
The matching figures for “WT-RLC-reconstituted porcine cardiac myosin (from UniProt P79293 1-1935; P10916 1-166) (complex)”: 18.9 nM and 0.8.

B1: recombinant human cardiac (ventricular) myosin regulatory light chain, wild type (natural protein)
chain: MAPKKAKKRAGGANSNVFSMFEQTQIQEFKEAFTIMDQNRDGFIDKNDLRDTFAALGRVNVKNEEIDEMIKEAPGPINFTVFLTMFGEKLKGADPEETILNAFKVFDPEGKGVLKADYVREMLTTQAERFSKEEVDQMFAAFPPDVTGNLDYKNLVHIITHGEEKD
In turn, B1 gave a Kd in assay [2] of 2920 nM.

B2: recombinant human cardiac (ventricular) myosin regulatory light chain, A13T mutant (natural protein)
chain: B1 chain with A13T
B2 had a Kd in assay [2] of 8140 nM.
